Consider five molecules from patent US20150132307A1 (Hoffmann-La Roche, published 2015).

What is called IC50 is the concentration that gives 50% inhibition. A low value points to greater potency.

Assay [1] deals with T1, human Flag-tagged soluble TWEAK (amino acids 106-249) (human, UniProt O43508 106-249).
T1 construct: The sentence gives amino acids 106-249 without naming the entry; also called Human TWEAK; not shown: Flag tag
T1 sequence: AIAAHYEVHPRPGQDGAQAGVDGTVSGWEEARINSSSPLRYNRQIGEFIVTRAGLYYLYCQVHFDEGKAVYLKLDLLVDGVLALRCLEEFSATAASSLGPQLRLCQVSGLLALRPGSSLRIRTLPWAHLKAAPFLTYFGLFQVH
Description: receptor interaction ELISA: Flag-TWEAK 2.5 ng/ml preincubated with antibody, then on coated human Fn14:Fc (competitor m21). On the procedure: 96-well Maxisorp® plates (Nunc) were coated with 100 μl 1 μg/ml human Fn14:Fc (extracellular domain of human Fn14 (amino acids 1-75 of SEQ ID NO: 98) fused to Fc portion of human IgG1) in PBS per well for 1.5 h at room temperature and blocked with a solution of 5% FBS in PBS for 30 minutes at room temperature under shaking. […] After washing the Fn14-coated plate once with wash buffer (0.1% Tween® 20 in PBS), 100 μl of the TWEAK-antibody solution were transferred to each well and the plate was incubated for 1 h at room temperature, followed by four washes with wash buffer. Wells were filled with 100 μl of anti-FLAG-HRP detection antibody, diluted 1:5000 in blocking buffer, and incubated for 1 h at room temperature. After four more wash steps, the signal was developed by addition of 100 μl 3,3,5,5-Tetramethylbenzidine (TMB) solution for approximately ten minutes. The reaction was stopped by adding 100 μl of 1 N HCl, and absorbance measured at 450 nm (reference wavelength 620 nm).

Assay [2] has as its target T2, Mouse soluble TWEAK (untagged, Example 5) (mouse, UniProt O54907 105-249, limits assumed).
T2 construct: also called Murine TWEAK
T2 sequence: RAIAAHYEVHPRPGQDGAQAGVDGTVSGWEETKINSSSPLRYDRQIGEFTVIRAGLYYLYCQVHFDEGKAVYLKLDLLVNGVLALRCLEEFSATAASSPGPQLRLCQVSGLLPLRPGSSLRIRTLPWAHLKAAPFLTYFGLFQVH
Description: receptor interaction ELISA: mouse soluble TWEAK 4 ng/ml preincubated with antibody, then on coated mouse Fn14:Fc (competitor m22). On the procedure:
Briefly, Maxisorp plates were coated with mouse Fn14:Fc (extracellular domain of mouse Fn14 (amino acids 1-75 of SEQ ID NO: 98) fused to Fc portion of human IgG1) as described above for human Fn14:Fc, followed by blocking and washing. […] After 1 h of incubation at room temperature and four washes, biotinylated anti-mouse TWEAK antibody at 125 ng/ml in blocking buffer was added for 1 h at room temperature, followed by another four wash steps. The TWEAK antibody was detected by incubation with streptavidin-HRP, diluted 1:5000 in blocking buffer, for 30 minutes at room temperature. Signal was developed and absorbance measured as described above.
A general note: An ELISA detects its analyte on a solid surface through an enzyme-linked reagent.

Assay [3] has as its target T3, Human recombinant soluble TWEAK (Example 6) (human, UniProt O43508 99-249, limits assumed).
T3 sequence: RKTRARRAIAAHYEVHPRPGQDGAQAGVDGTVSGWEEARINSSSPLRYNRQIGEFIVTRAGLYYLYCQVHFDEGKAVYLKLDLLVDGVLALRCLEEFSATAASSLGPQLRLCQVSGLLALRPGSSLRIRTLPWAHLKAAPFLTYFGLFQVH
Description: cell-based or functional assay.

In assay [4] the target is T4, Biotinylated human soluble TWEAK (amino acids 99-249 of SEQ ID NO: 68) (human, UniProt O43508 99-249, biotinylated).
T4 construct: also called Human TWEAK
T4 sequence: T3 sequence
Put plainly: SPR (Biacore 2000), biotinylated soluble TWEAK on streptavidin chip, antibody 100 nM as analyte, 25 C. On the procedure: A Biacore 2000 instrument was used with a Biacore streptavidin coated sensor mounted into the system. The system buffer HBS-ET (10 mM HEPES pH 7.4, 150 mM NaCl, 1 mM EDTA, 0.05% Tween® 20) was used at a flow rate of 100 μl/min. The sample buffer was the system buffer. Biotinylated human soluble TWEAK (amino acids 99-249 of SEQ ID NO: 68) and biotinylated murine soluble TWEAK (amino acids 81-225 of SEQ ID NO: 69) was immobilized on different flow cells on the SA sensor at 150 RU each. The flow cell FC1 was used as a blank reference cell. Each antibody was injected into the system as an analyte at 100 nM at 100 μl/min for 2 min association time. The dissociation of the immunecomplexes were monitored for 5 min. The sensor surface was washed with HBS-ET for 10 seconds and regenerated using 2×2 minutes injections with 10 mM glycine pH 2.25. This procedure was done at 25° C. The kinetically rate limiting step of the complex dissociation phase in the interval [240 s-300 s] was taken to calculate the dissociation rate kd [1/s] (Biacore Evaluation Software 4.0). According to the equation t1/2 diss=ln(2)/(60×kd), the half-life of the immunocomplexes in minutes was calculated.
(In general: In SPR one partner is held on a chip, and binding of the other changes the refractive index at the surface.)

In a further assay the target is T5, IL-17 A/F (human, UniProt Q16552 24-155; Q96PD4 31-163).
T5 construct: read as the heterodimer of IL17A and IL17F
Description: SPR (BIAcore T100), antibody captured by anti-human F(ab')2, IL17 as analyte, 25 C, 1:1 model. On the procedure: (§1) Around 12000 resonance units (RU) of the capturing system (10 μg/ml goat anti human F(ab′)2; Order Code: 28958325; GE Healthcare Bio-Sciences AB, Schweden) were coupled on a CMS chip at pH 5.0 by using an amine coupling kit supplied by the GE Healthcare. The sample and system buffer was PBS-T (10 mM phosphate buffered saline including 0.05% Tween20) pH 7.4. The bispecific antibody was captured by injecting a 50 nM solution for 1 min at a flow of 10 μl/min. Association was measured by injection human IL17 in various concentrations in solution for 3 min at a flow of 30 μl/min starting with 50 nM in 1:1 dilutions. The dissociation phase was monitored for up to 5 min and triggered by switching from the sample solution to running buffer. The surface was regenerated by two times 60 sec. washing with a glycin pH 2.1 solution at a flow rate of 30 μl/min. Bulk refractive index differences were corrected by subtracting the response obtained from a goat anti human F(ab′)2 surface. Blank injections are also subtracted (=double referencing). For calculation of apparent KD and other kinetic parameters the Langmuir 1:1 model was used.

Assay [5] concerns the target T6, Recombinant human TWEAK (R&D Systems; Cat. #1090-TW/CF) (human, UniProt O43508 97-249, limits assumed).
T6 sequence: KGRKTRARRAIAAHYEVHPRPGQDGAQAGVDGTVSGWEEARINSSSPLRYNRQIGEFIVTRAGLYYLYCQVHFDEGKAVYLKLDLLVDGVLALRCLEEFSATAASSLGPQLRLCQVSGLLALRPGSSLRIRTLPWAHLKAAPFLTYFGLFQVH
Put plainly: cell-based or functional assay.

The target of a further assay is human IL17A/A (human, UniProt Q16552 24-155, limits assumed). Description: SPR (BIAcore T100), antibody captured by anti-human F(ab')2, IL17 as analyte, 25 C, apparent KD, 1:1 model. On the procedure:
as §1

The target in another assay is T7, IL-17 F/F (human, UniProt Q96PD4 31-163).
T7 construct: read as the homodimer of IL17F
T7 sequence: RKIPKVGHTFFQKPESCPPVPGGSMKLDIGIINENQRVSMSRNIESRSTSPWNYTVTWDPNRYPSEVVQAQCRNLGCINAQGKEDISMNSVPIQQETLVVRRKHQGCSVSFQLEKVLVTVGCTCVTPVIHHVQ
Description: SPR (BIAcore T100), antibody captured by anti-human F(ab')2, IL17 as analyte, 25 C. On the procedure:
as §1

Sequence of human IL17A/A (Q16552 24-155 limits assumed): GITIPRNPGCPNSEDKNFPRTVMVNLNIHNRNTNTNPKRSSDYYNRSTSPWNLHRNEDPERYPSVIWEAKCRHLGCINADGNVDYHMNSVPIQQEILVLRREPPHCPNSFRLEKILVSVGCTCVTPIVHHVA
T5 sequence (Q16552 24-155 limits assumed, one chain of several): as the sequence (Q16552 24-155 limits assumed) above

B1: <TWEAK> 301 (rabbit) (antibody, V domains shown)
VH: QSLEESGGGLVKPGASLTLTCTASGFTFNANYWICWVRQAPGKGLEWIACIYGGGNSGAYYASWATGRFTISRTSSTTVTLQMTSLTAADTATYFCARGPISRDLWGPGTLVTVSL
VL: DVVMTQTPASVSEPVGGTVTIKCQASQSIYSSLAWYQQKPGQPPKLLIYDAFDLASGVSSRFTGSGSGTQFTLTISDLECADAATYYCQSTDYGNSWDGNPFGGGTEVVVT
notes: Rabbit parent antibody; purified antibody or hybridoma supernatant was used
In the case of B1, the 50% inhibitory concentration (IC50) was 3.4 ng/mL in assay [1] and 4.7 ng/mL in assay [2]. Further, the “Inhibition of IL-8 Secretion IC50 [ng/ml] (A375 cells)” value (from here on “Inhibition of IL-8 Secretion IC50”) in assay [3] was found to be 128 ng/mL.

B2: <TWEAK> 305chi (antibody, human IgG1, kappa, V domains shown)
VH: QEQLVESGGGLVQPGGSLTLSCKASGFDFSTYYMSWVRQAPGKGLEWIGTVYVRQGTTYYASWLNGRFTISSDNAQNTVDLKMNSLTAADTATYFCAKGGYNYDDAFVIWGPGTLVTVSF
VL: AIEMTQTPFSVSAAVGGTVTINCQASQNIYSNLAWYQQKPGQPPKLLMYTASYLASGVPSRFKGSGSRTEYTLTISGVQCADAATYYCQTAYYNSRPDTVAFGGGTEVVVKR
notes: Chimer: rabbit variable domains with human kappa and human IgG1 constant regions
Turning to B2, the “t/2 diss [min] 25° C.” value in assay [4] came to 147 min. In addition, in assay [1], the IC50 was determined as 2.6 ng/mL. Also, the “Inhibition of IL-8 Secretion IC50” value in assay [3] was determined as 104 ng/mL.

B3: <TWEAK> 304 (rabbit) (antibody, V domains shown)
VH: QSLEESGGDLVKPGASLTLTCKASGFSFSSTYYMCWVRQAPGKGLEWIGCIYVGSSGAPYYASWAKGRFTISKTSSTTVALQMTSLTPADTATYVCTRSVHFGDLWGPGTLVTVSS
VL: DVVMTQTPSPVSAAVGGTVTIKCQASQSIGNDLSWYQQKPGQRPKLLIYSVSTLASGVPSRFKGSGSGTEYSLTISDVQCADAATYYCQCIDYGNNYVGNTFGGGTEVVVK
notes: Rabbit parent antibody
As to B3, the results for the half-maximal inhibitory concentration (IC50) in assay [1] and in assay [2] were 2.8 ng/mL and 3.6 ng/mL, respectively. Also, the “Inhibition of IL-8 Secretion IC50” value in assay [3] worked out at 109 ng/mL.

B4: <TWEAK> 304chi (antibody, human IgG1, kappa, V domains shown)
VH: B3 VH
VL: DVVMTQTPSPVSAAVGGTVTIKCQASQSIGNDLSWYQQKPGQRPKLLIYSVSTLASGVPSRFKGSGSGTEYSLTISDVQCADAATYYCQCIDYGNNYVGNTFGGGTEVVVKR
notes: as for B2
For the molecule B4, the “t/2 diss [min] 25° C.” value in assay [4] was determined as 37 min. Moreover, the IC50 in assay [1] worked out at 2.6 ng/mL. Besides, in assay [3], the “Inhibition of IL-8 Secretion IC50” value was determined as 122 ng/mL.

B5: Bispecific <Tweak-IL-17> #2 antibody (bispecific antibody, human IgG1, kappa)
heavy 1: not shown
heavy 2: not shown
light 1: DIVMTQSPLSLPVTPGEPASISCRSSQSLVHSNGDTYFHWYLQKPGQSPQLLIYKVSNRFSGVPDRFSGSGSGTDFTLKISRVEAEDVGVYYCSQTTHAPFTFGQGTKLEIKRTVAAPSVFIFPPSDEQLKSGTASVVCLLNNFYPREAKVQWKVDNALQSGNSQESVTEQDSKDSTYSLSSTLTLSKADYEKHKVYACEVTHQGLSSPVTKSFNRGEC
light 2: DIQMTQSPSSVSASVGDRVTITCQASQNIYSNLAWYQQKPGKAPKLLIYTASYLASGVPSRFSGSGSGTDYTLTISSLQPEDFATYYCQTAYYNSRPDTVAFGGGTKVEIKSSASTKGPSVFPLAPSSKSTSGGTAALGCLVKDYFPEPVTVSWNSGALTSGVHTFPAVLQSSGLYSLSSVVTVPSSSLGTQTYICNVNHKPSNTKVDKKVEPKSC
notes: Bivalent CrossMab (CH1-CL exchanged, WO 2009/080253), IgG1 knobs-into-holes
In the case of B5, the Kd amounted to 0.25 nM with IL-17 A/F and 0.15 nM with human IL17A/A. Also, in assay [5], the “IC50 (nM) per valency, Tweak induced HFLS proliferation (CellTiter Glo)” value was 0.065 nM. Moreover, the binding result with IL-17 F/F is listed as “no binding (tested: IL17 injected starting with 50 nM)”.
